Measured values as given in PMC12749748, “Chemically-induced degradation of the endoplasmic-reticulum stress sensor IRE1 by a VHL-recruiting chimera” (Nature Communications, 2025).

Biological target: Biotinylated human IRE1.KR protein (human) (UniProt O75460)
Assay: SPR; Biacore S200, 20 °C; biotinylated IRE1.KR captured on a streptavidin chip (100-200 RU); VHL titrated without G6374, 8-point 2-fold series, top 5 µM, single cycle kinetics; 50 mM HEPES pH 7.4, 150 mM NaCl, 0.01% Tween 20, 0.2% PEG3350, 0.25 mM TCEP, 100 µg/ml ovalbumin, 2% DMSO

Chain of Biotinylated human IRE1.KR protein (human) (O75460 547-977): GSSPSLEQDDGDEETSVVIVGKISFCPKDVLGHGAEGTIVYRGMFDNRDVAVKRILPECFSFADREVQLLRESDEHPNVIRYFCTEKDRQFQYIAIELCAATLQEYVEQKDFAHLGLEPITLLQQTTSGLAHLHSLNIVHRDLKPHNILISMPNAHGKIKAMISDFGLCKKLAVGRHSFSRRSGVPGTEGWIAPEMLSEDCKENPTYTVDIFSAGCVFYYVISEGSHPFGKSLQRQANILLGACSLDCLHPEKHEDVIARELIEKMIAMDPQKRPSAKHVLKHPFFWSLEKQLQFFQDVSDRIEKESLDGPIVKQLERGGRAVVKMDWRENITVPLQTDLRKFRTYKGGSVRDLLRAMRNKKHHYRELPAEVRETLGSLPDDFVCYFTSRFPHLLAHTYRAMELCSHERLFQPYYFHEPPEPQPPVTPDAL

KD without G6374: > 10 µM
Substance: his-VHL/EloB (VHL in complex with Elongin B) (from UniProt P40337 1-213; Q15370 1-118)
